Source: article PMC7188906

Legend:
human ACKR4-EYFP (human) [1] = target: T1, human ACKR4-EYFP (human) (UniProt Q9NPB9)
T1 sequence: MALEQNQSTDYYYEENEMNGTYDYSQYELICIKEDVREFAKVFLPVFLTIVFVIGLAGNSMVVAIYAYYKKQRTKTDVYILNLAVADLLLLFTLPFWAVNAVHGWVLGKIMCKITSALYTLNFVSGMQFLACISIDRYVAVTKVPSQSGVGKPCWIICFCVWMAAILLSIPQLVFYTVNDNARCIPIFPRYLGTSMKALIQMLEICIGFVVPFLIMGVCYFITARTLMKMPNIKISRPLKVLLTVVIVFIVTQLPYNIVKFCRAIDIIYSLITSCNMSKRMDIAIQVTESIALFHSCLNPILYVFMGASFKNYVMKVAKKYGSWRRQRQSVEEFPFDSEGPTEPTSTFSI

human ACKR4-EYFP (human) [2] = target: T1, human ACKR4-EYFP (human); remark: listed apart in the source

Row | EC50 of GRK2-Nluc recruitment to ACKR4-EYFP (BRET, HeLa cells, dose-response) (human ACKR4-EYFP (human) [1]) | EC50 of GRK3-Nluc recruitment to ACKR4-EYFP (BRET, HeLa cells, dose-response) (human ACKR4-EYFP (human) [1]) | EC50 of β-arrestin1-Nluc recruitment to ACKR4-EYFP (BRET, HeLa cells, graded chemokine) (human ACKR4-EYFP (human) [2]) | EC50 of β-arrestin2-Nluc recruitment to ACKR4-EYFP (BRET, HeLa cells, graded chemokine) (human ACKR4-EYFP (human) [2]) | Substance
1 | 35 nM | 42 nM | 76 nM | 32 nM | recombinant human CCL19 (from UniProt Q99731 22-98) (ligand)
2 | 129 nM | 142 nM | 240 nM | 133 nM | recombinant human CCL21 (from UniProt O00585 24-134) (ligand)
3 | 87 nM | 147 nM | 115 nM | 130 nM | recombinant human CCL25 (from UniProt O15444 24-150) (ligand)
